From patent publication US20170224836A1 (Novartis, published 2017)
Read-outs that look alike come from different tables or passages of the source.

How the values were obtained:
rat CDH6 on cells = target: T1, rat CDH6 on cells (rat, UniProt P55280 54-789); experiment: FACS on CHO-ratCDH6 cells
T1 sequence (looked up): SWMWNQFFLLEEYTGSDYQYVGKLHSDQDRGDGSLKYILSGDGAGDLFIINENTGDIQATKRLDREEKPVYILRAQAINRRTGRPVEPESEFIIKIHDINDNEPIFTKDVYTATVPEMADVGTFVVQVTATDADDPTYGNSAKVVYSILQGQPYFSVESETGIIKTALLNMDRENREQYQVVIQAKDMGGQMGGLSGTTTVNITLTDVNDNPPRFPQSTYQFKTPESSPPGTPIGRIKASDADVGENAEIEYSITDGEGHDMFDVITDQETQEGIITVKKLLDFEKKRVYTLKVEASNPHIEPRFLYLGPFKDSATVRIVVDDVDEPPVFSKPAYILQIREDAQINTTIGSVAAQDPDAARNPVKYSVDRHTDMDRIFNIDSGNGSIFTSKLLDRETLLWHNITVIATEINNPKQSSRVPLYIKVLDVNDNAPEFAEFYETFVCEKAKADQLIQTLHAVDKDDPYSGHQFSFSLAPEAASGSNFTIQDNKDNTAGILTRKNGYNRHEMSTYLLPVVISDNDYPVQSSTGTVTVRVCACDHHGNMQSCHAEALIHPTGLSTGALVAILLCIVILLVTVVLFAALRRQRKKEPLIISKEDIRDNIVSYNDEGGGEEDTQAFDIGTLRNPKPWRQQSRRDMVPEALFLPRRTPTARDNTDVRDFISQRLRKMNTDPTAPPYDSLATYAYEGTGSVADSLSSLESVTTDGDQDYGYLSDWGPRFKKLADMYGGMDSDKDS

human CDH6 on cells = target: T2, human CDH6 on cells (human, UniProt P55285 54-790); experiment: FACS on CHO-TO-humanCDH6 cells plus tetracycline
T2 sequence: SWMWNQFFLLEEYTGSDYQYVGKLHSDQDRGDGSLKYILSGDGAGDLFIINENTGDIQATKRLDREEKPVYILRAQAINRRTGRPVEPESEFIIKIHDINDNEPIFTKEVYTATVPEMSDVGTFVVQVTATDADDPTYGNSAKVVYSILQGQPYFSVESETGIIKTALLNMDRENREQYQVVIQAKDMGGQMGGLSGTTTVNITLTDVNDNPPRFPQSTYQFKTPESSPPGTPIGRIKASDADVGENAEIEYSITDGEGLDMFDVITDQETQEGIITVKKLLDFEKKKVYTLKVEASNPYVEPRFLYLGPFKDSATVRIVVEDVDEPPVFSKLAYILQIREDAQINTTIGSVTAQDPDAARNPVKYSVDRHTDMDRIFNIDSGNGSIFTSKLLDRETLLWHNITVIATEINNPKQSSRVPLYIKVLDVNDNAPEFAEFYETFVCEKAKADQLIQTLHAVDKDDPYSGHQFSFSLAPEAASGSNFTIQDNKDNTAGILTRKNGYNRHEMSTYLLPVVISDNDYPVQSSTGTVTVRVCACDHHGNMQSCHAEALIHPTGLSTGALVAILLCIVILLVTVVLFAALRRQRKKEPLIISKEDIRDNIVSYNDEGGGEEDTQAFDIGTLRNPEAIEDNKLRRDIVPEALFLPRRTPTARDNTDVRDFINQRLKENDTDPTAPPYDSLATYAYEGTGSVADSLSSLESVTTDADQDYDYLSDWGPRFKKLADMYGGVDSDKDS

hCDH6aa54-615 APPavi [1] = target: T3, hCDH6aa54-615 APPavi (human, UniProt P55285 54-615); experiment: SPR binning
T3 sequence: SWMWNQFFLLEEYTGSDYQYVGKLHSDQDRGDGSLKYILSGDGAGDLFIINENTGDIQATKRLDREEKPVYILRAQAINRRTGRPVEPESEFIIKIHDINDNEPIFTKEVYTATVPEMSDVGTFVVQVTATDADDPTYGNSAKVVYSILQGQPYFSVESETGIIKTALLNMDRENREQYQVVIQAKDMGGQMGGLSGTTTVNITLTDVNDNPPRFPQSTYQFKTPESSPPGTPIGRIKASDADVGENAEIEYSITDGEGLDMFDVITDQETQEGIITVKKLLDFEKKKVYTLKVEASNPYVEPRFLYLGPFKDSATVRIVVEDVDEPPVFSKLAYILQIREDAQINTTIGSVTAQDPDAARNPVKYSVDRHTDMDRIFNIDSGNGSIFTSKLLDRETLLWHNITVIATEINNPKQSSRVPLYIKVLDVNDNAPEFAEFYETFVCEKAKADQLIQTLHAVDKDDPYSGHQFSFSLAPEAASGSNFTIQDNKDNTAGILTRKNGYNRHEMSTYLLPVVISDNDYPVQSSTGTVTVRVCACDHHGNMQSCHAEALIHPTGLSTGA

hCDH6aa54-615 APPavi [2] = target: T3, hCDH6aa54-615 APPavi; experiment: SPR binning; remark: listed apart in the source

B1: NOV0712 (antibody, human IgG1, kappa, V domains shown)
VH: QVQLLESGGGLVQPGGSLRLSCAASGFTFSSHGMHWVRQAPGKGLEWVSVISGSGSNTGYADSVKGRFTISRDNSKNTLYLQMNSLRAEDTAVYYCARQWGSYAFDSWGQGTLVTVSS
VL: DIQMTQSPSSLSASVGDRVTITCRASQSISSYLNWYQQKPGKAPKLLIYAVSTLQSGVPSRFSGSGSGTDFTLTISSLQPEDFATYYCQQSGTFPPTTFGQGTKVEIKR
EC50 (read off the curve) (rat CDH6 on cells): ~1 nM
EC50 (read off the curve) (human CDH6 on cells): ~0.9 nM
response of secondary antibody on primary antibody-CDH6 complex (hCDH6aa54-615 APPavi [1]): 24.7
response of secondary antibody on primary antibody-CDH6 complex (hCDH6aa54-615 APPavi [2]): 16.5
